In article PMC4987126 (Molecular immunology, 2016):

Target: T1, synthetic peptide of the C1q A chain, residues 14–26 (collagen region)
T1 peptide: AGRPGRRGRPGLK
Test: ELISA

PWNASWSNKSLDDIWNC [gp41-3S, 17-residue synthetic peptide corresponding to the 3S motif of gp41]: binds.
